{"source": "patent US20190022242A1", "about": "(AbbVie / Abbott, published 2019)", "binders": {"B1": {"name": "SC73.17 (antibody, V domains shown)", "VH": "EVQLQQSGAELVKPGASVKLSCTASGFNFKDTYMHWVKQRPEQGLEWIGRIDPAIGITEYGPKFQGKATITADTSSNTAYLQLSSLTSEDTAVYYCTRGDFYGNSLDVWGAGTTVTVSS", "VL": "DIVMTQSPATLSVTPGDRVSLSCRASQIISDYLHWYRQKSHESPRLLIKYASQSISGIPSRFSGSGSGSDFTLSINSVEPEDVGVYYCQNGHSFPLTFGTGTKLELK", "notes": "Murine hybridoma antibody, first inoculation campaign"}, "B2": {"name": "SC73.101 (antibody, V domains shown)", "VH": "QIHLVQSGPELKKPGETVKISCKASGYTFTDYSMHWVKQAPGKGLKWMGWINTETGEPTYPDDFKGRFAFSLETSASTAYLQINNLKNEDTATYFCARGYGYDETGTFAYWGQGTLVTVSA", "VL": "not shown", "notes": "Murine hybridoma antibody, second inoculation campaign; mouse IgG2a was used as its isotype control in IHC; also called anti-MMP16 antibody (clone SC73.101)"}}, "key": {"hMMP16ECD(E247A)-Fc": {"target": "T1, hMMP16ECD(E247A)-Fc (human, UniProt P51512 32-564)", "T1 construct": "IgK signal peptide upstream (cleaved); also called phMMP16ECD(E247A)-Fc; not shown: human IgG2 Fc protein", "T1 sequence (P51512 32-564 E247A)": "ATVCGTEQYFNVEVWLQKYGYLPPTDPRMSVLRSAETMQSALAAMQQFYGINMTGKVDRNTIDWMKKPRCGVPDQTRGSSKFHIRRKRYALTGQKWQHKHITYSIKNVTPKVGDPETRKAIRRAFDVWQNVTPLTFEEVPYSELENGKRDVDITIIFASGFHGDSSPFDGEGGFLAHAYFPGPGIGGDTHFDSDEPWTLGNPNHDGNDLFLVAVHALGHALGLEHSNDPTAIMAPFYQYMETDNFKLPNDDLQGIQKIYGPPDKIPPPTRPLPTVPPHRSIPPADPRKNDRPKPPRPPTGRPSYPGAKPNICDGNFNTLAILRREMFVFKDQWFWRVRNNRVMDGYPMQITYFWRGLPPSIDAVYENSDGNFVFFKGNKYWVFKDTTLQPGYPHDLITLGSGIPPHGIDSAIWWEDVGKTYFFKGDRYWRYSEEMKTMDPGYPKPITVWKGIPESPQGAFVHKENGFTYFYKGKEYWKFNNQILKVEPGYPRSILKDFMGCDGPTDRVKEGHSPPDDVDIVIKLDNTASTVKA", "test": "MSD ELISA, plate coated with hMMP16ECD(E247A)-Fc at 2 ug/mL, antibody 0.5 ug/mL"}, "hMMP16ECD(E247A)-His": {"target": "T2, hMMP16ECD(E247A)-His (human, UniProt P51512 32-564)", "T2 construct": "IgK signal peptide upstream (cleaved); also called hMMP16-his; hMMP16-His protein", "T2 sequence (P51512 other isoform, or with tags, fused parts or gaps E247A E247A)": "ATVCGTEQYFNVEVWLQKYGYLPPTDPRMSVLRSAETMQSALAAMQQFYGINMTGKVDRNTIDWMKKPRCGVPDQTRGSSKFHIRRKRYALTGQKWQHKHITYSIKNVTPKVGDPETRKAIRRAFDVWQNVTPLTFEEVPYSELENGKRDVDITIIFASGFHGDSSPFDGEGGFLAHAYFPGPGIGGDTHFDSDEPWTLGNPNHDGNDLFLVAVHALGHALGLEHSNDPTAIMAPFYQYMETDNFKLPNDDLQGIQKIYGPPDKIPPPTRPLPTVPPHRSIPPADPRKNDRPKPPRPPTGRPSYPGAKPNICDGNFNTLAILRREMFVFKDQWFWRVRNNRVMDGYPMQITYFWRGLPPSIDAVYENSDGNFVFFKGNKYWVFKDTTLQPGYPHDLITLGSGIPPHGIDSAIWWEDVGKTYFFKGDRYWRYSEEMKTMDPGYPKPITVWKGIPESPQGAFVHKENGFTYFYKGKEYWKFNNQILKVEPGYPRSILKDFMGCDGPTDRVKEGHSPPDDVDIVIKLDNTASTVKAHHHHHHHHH", "test": "colorimetric ELISA, plate coated with hMMP16-his at 3 ug/mL, antibody 0.5 ug/mL"}}}
{"binder": "B1", "values": [{"measurement": "binding result", "setting": "hMMP16ECD(E247A)-Fc", "result": "binds"}]}
{"binder": "B2", "values": [{"measurement": "binding result", "setting": "hMMP16ECD(E247A)-His", "result": "binds"}]}
